This note sets out measurements from US20240425587A1 (Alector, published 2024).

B1: A5 (antibody, V domains shown)
VH: QVQLVQSGAEVKKPGSSVKVSCKASGYTFTDYYMNWVRQAPGQGLEWMGGIIPIFGTADYAQRFQGRVTITADESTSTAYMELSSLRSEDTAVYYCARDAGYYGMDVWGQGTLVTVSS
VL: EIVMTQSPATLSVSPGERATLSCRASQSVSNYLAWYQQKPGQAPRLLIYGASTRATGIPARFSGSGSGTEFTLTISSLQSEDFAVYYCQQFDDLPLTFGPGTKVEIK
notes: phage campaign
B2: E5 (antibody, V domains shown)
VH: QVQLVQSGAEVKKPGSSVKVSCKASGYTFTSYGINWVRQAPGQGLEWMGWINPNSGDTLYAQNFQGRVTITADESTSTAYMELSSLRSEDTAVYYCARGPEPYWYFDLWGRGTLVTVSS
VL: EIVMTQSPATLSVSPGERATLSCRASQNIDSRFLAWYQQKPGQAPRLLIYGASTRATGIPARFSGSGSGTEFTLTISSLQSEDFAVYYCQQSFSTPLTFGGGTKVEIK
B3: A4 (antibody, V domains shown)
VH: QVQLVQSGAEVKKPGSSVKVSCKASGYTFTGYAVNWVRQAPGQGLEWMGGIIPIFGTANYAQKFQGRVTITADESTSTAYMELSSLRSEDTAVYYCARNLGYSSGWSGYYYGMDVWGQGTMVTVSS
VL: EIVMTQSPATLSVSPGERATLSCRASQSVSSNYLAWYQQKPGQAPRLLIYGASTRATGIPARFSGSGSGTEFTLTISSLQSEDFAVYYCQQYGSSSFTFGPGTKLEIK
notes: phage campaign
B4: A1 (antibody, V domains shown)
VH: QVQLVQSGAEVKKPGSSVKVSCKASGYTFINHDINWVRQAPGQGLEWMGWMNPNSGNTGYAQKFQGRVTITADESTSTAYMELSSLRSEDTAVYYCARDRRGSYYGLMDWFDPWGQGTLVTVSS
VL: DIQMTQSPSSLSASVGDRVTITCRASQSISRWLAWYQQKPGKAPKLLIYDASNLETGVPSRFSGSGSGTDFTLTISSLQPEDFATYYCQQSYSTPSFGQGTKVEIK
notes: phage campaign
B5: E15 (antibody, V domains shown)
VH: QVQLQQSGAELVKPGASVKLSCKASGNTFTIYDINWVRQRPEQGLEWIGWIFPGDGSTKYNGKFKGKATLTTDKSSSTAYMQLSRLTSEDSAVYFCARRAHYYGSSFDYWGQGTTLTVSS
VL: DIQMTQSSSYLSVSLGGRVTITCKASDHINNWLAWYQQKPGNGPRLLISGAISLEIGVPSRFSGSGSGKEYTLSITSLQTEDVATYYCQQYWSPPWTFGGGTKLEIK
notes: B-cell cloning campaign (mice)
B6: A12 (antibody, V domains shown)
VH: QVQLVQSGAEVKKPGASVKVSCKASGYNFNDYYIHWVRQAPGQGLEWMGWISAYNGNTNYAQKLQGRVTMTRDTSTSTVYMELSSLRSEDTAVYYCARDGWYCSSSSCYTGSDYWGQGTLVTVSS
VL: DIQMTQSPSSLSASVGDRVTITCRASQSISNYLNWYQQKPGKAPKLLIYGASTLHSGVPSRFSGSGSGTDFTLTISSLQPEDFATYYCQQSYSTPFTFGPGTKVDIK
notes: phage campaign
B7: A15 (antibody, V domains shown)
VH: QVQLVQSGAEVKKPGASVKVSCKASGGTFSNYGLTWVRQAPGQGLEWMGWINLNSGGTYYAQKFQGRVTMTRDTSTSTVYMELSSLRSEDTAVYYCARDRYSSGWYEGDAFDIWGQGTMVTVSS
VL: B6 VL with S28G, Y32W, N34A, G50A, T53S, H55Q, F96W
notes: phage campaign
B8: A2 (antibody, V domains shown)
VH: EVQLLESGGGLVKPGGSLRLSCAASGFTFSDYYMSWVRQAPGKGLEWVSSISIGGGGTYYADSVKGRFTISRDDSKNTLYLQMNSLRAEDTAVYYCASHGFGARKMDFWGQGTTVTVSS
VL: DIQMTQSPSSLSASVGDRVTITCRASQSIRSYVNWYQQKPGKAPKLLIYDASNLETGVPSRFSGSGSGTDFTLTISSLQPEDFATYYCQQSYSPPITFGQGTKVEIK
notes: phage campaign
B9: A14 (antibody, V domains shown)
VH: QVQLVQSGAEVKKPGASVKVSCKASGYTFTSYYMYWVRQAPGQGLEWMGWMNPNSGNTGFAQKFQGRVTMTRDTSTSTVYMELSSLRSEDTAVYYCASGYYDSWSGETDYGMDVWGQGTTVTVSS
VL: B8 VL with R30S, V33L, N53T, T56S, S93K, P94T, I96Y, V104L
notes: phage campaign
B10: A3 (antibody, V domains shown)
VH: EVQLLESGGGLVQPGGSLRLSCAASGFTFSRYEMNWVRQAPGKGLEWVAGISYDGSYEYYADSVKGRFTISRDNSKNTLYLQMNSLRAEDTAVYYCAKGSYGYDAFDIWGQGTMVTVSS
VL: B8 VL with R30S, Y32W, V33L, N34A, D50A, A51T, N53T, E55Q, T56S, I96Y
notes: phage campaign
B11: A6 (antibody, V domains shown)
VH: QVQLVQSGAEVKKPGSSVKVSCKASGYTFINYDINWVRQAPGQGLEWMGGIIPIFGAPVYAQDFQGRVTITADESTSTAYMELSSLRSEDTAVYYCAIADGAGWFDPWGQGTLVTVSS
VL: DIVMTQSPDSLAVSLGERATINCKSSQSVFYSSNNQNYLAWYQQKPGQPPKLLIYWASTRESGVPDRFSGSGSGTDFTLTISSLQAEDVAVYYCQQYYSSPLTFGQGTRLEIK
notes: phage campaign

Positions count from the first letter of the chain named. Numbers in names are those of the source.

T5 sequence (Q9UKJ1 20-197 limits assumed): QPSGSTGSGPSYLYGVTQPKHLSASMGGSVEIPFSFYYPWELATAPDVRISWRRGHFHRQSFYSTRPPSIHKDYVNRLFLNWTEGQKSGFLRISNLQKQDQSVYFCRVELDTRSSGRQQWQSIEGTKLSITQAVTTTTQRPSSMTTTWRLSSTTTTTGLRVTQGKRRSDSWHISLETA
T3 sequence (Q2YFS2 29-224): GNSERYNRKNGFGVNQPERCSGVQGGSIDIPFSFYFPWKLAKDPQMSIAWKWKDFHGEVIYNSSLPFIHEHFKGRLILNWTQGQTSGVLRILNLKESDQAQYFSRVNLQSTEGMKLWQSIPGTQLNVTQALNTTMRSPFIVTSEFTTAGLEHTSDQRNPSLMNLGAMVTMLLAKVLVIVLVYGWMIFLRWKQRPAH
Sequence of cynomolgus PILRA, ectopically expressed on 293 cells (cynomolgus monkey) (chain, as listed by the source): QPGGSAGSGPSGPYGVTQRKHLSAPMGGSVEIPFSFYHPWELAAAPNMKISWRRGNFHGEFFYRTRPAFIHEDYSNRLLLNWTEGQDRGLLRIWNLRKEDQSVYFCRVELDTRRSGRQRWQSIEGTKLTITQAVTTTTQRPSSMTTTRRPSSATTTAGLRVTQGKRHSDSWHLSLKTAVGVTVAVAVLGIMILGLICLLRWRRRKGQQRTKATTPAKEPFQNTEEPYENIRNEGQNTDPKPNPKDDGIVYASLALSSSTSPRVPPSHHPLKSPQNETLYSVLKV

The target of one experiment is T1, murine PILRA, ectopically expressed on 293 cells (murine, UniProt Q2YFS3 32-302).
T1 construct: also called mA
T1 sequence (Q2YFS3 32-302): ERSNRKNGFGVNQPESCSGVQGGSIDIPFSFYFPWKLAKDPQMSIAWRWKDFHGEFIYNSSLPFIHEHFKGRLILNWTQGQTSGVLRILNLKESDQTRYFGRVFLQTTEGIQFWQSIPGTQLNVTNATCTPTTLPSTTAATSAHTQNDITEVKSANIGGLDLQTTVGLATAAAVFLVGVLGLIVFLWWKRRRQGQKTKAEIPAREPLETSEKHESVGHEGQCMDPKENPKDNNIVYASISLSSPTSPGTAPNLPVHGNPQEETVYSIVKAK
The experiment is described as follows: flow cytometry, 293 cells expressing target. On the procedure:
(§1) Briefly, conditioned media containing antibodies were incubated with 293 cells for 30 min at 4° C., washed twice, and then detected with anti-mouse IgG Alexa 647.
Background: In flow cytometry, cells or beads pass a laser one at a time.
For B1, the binding result is on record as “no binding”.
For the molecule B2, the binding result was “no binding”.
As to B3, the binding result is given as “no binding”.
On the same count and under the same terms, the same measure for B4: “no binding”; for B5: “no binding”.
Same read-out and setting: to B6 belongs “no binding”; to B7, “no binding”.
In the case of B8, the binding result was “no binding”.
Still for that read-out and setting: the same measure for B9: “no binding”.
The same measure, in the same setting: the same measure for B10: “no binding”; for B11: “no binding”.

The next experiment concerns the target cynomolgus PILRA, ectopically expressed on 293 cells (cynomolgus monkey). The experiment is described as follows: flow cytometry, 293 cells expressing target. On the procedure:
as §1
In turn, B1 gave an EC50 of 2.8 µg/mL.
On to B2, for which the binding result is listed as “no binding”.
The molecule B3 yielded an EC50 of 1.3 µg/mL.
B4: the binding result is recorded as “no binding”.
B5 showed an EC50 of 14.6 µg/mL.
The same measure, in the same setting: to B6 belongs 8.6 µg/mL.
In turn, B7 showed an EC50 of 11.1 µg/mL.
As to B8, the binding result is reported as “no binding”.
As for B9, the concentration for a half-maximal effect (EC50) is 11.5 µg/mL.
On to B10, for which the binding result is “no binding”.
In turn, B11 came in with an EC50 of 0.3 µg/mL.

Another experiment deals with T2, human PILRB, ectopically expressed on 293 cells (human, UniProt Q9UKJ0 20-227).
T2 construct: also called hB
T2 sequence (Q9UKJ0 20-227): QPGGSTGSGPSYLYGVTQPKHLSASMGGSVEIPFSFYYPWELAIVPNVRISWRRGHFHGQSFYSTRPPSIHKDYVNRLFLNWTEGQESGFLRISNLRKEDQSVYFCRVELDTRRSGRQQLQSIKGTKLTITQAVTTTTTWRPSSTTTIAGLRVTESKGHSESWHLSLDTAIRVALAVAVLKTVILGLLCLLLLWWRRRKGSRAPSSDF
Briefly: flow cytometry, 293 cells expressing target. As for the experimental part: as §1
For B1, the binding result is “no binding”.
The molecule B2 had a half-maximal effective concentration (EC50) of 0.3 µg/mL.
As to B3, the binding result is given as “no binding”.
Consider B4, for which the binding result is “no binding”.
B5 came in with an EC50 of 16.4 µg/mL.
The same measure, in the same setting: to B6 belongs 8.6 µg/mL.
Same read-out and setting: the same measure for B7: 10.5 µg/mL; for B9: 12.9 µg/mL.
As to B10, the binding result was “no binding”.
Still for that read-out and setting: the same measure for B11: “no binding”.

Another experiment concerns the target T3, murine PILRB, ectopically expressed on 293 cells (murine, UniProt Q2YFS2 29-224).
T3 construct: whole, on cells; also called mB
Briefly: flow cytometry, 293 cells expressing target. On the procedure:
as §1
Regarding B1, the binding result is given as “no binding”.
On the same count and under the same terms, the same measure for B2: “no binding”; for B3: “no binding”; for B4: “no binding”.
On the same count and under the same terms, to B5 belongs “no binding”.
As for B6, the binding result was “no binding”.
Take B7: the binding result is on record as “no binding”.
B8: the binding result was “no binding”.
Regarding B9, the binding result was “no binding”.
As to B10, the binding result is “no binding”.
As for B11, the binding result is listed as “no binding”.

The target in a further experiment is T4, human PILRA, G78 variant, ectopically expressed on 293 cells (human, UniProt Q9UKJ1 20-303).
T4 construct: the cells are labelled G78; also called hA G78 OE; hA
T4 sequence (Q9UKJ1 other isoform, or with tags, fused parts or gaps mutant): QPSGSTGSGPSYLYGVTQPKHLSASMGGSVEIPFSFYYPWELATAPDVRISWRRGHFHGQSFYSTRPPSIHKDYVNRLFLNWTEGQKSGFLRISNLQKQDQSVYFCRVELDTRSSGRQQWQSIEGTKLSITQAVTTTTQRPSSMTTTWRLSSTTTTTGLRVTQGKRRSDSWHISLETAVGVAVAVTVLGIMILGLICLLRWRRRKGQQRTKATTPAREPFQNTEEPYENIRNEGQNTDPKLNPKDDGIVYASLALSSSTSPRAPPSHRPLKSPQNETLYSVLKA
The experiment is described as follows: flow cytometry, 293 cells expressing target. On the procedure: as §1
For the molecule B1, it took 3.4 µg/mL to reach a half-maximal effect (EC50).
Take B2: a half-maximal effect (EC50) was put at 0.1 µg/mL.
Same read-out and setting: the same measure for B3: 0.7 µg/mL.
Still for that read-out and setting: to B4 belongs 1.9 µg/mL.
On the same count and under the same terms, to B5 belongs 4.73 µg/mL; to B6, 0.4 µg/mL; to B7, 0.2 µg/mL.
Turning to B8, the EC50 came to 0.3 µg/mL.
B9 came in with an EC50 of 0.5 µg/mL.
On the same count and under the same terms, the same measure for B10: 0.1 µg/mL; for B11: 1.7 µg/mL.

Another experiment has as its target T5, human PILRA, c-term His-Avi tag (human, UniProt Q9UKJ1 20-197, limits assumed).
T5 construct: not shown: C-terminal His-Avi tag
The experiment is described as follows: SPR (Biacore), antibody captured, PILRA as analyte. On the procedure: Experiments were performed to determine the kinetics of anti-PILRA antibody binding to human […]. The assay is depicted in FIG. 6. A rabbit anti-PILRA was used as a positive control, and H1 LALAPS was used as a negative control. Human PILRA (human PILRA, c-term His-Avi tag, 0.68 mg/mi) was used as the antigen. The running buffer was HBSTE/0.5% BSA, pH 7.4, and the regeneration solution was 10 mM glycine-HCl (pH 2.1). In the assay, antibodies were captured at 10 μg/ml by immobilized anti-huFc or anti-msFc on a Biacore CM5 chip, and human PILRA flowed at 33, 100, and 300 nM. The surface was regenerated after each analyte, and all curves were double-referenced with buffer injections.
On the technique in general: Surface plasmon resonance follows binding to a sensor surface in real time, without labels.
On to B1, for which the Kd worked out at 32.1 nM, the koff turned out to be 0.0045 s⁻¹ and the kon was 140000 M⁻¹ s⁻¹.
Taken in the same sequence, the figures for B2 were 76.2 nM, 0.0061 s⁻¹ and 80000 M⁻¹ s⁻¹.
The molecule B3 came in with a Kd of 113 nM, a koff of 0.005 s⁻¹ and a kon of 44000 M⁻¹ s⁻¹.
For B4 the same measures were 99.6 nM, 0.0038 s⁻¹ and 38000 M⁻¹ s⁻¹.
For B5, the Kd worked out at 31.3 nM, the koff is 0.0017 s⁻¹, the kon was determined as 53000 M⁻¹ s⁻¹ and the t½ amounted to 6.9 min.
Taken in the same sequence, the figures for B6 were 19.3 nM, 0.0012 s⁻¹, 63000 M⁻¹ s⁻¹ and 9.6 min.
In the case of B8, binding was put at a Kd of 193 nM, the koff was determined as 0.0063 s⁻¹ and the kon was found to be 33000 M⁻¹ s⁻¹.
In turn, B9 came in with a Kd of 12.2 nM, a koff of 0.0012 s⁻¹, a kon of 99000 M⁻¹ s⁻¹ and a t½ of 9.6 min.
B10 came in with a Kd of 93.7 nM, a koff of 0.0067 s⁻¹ and an on-rate (kon) of 71000 M⁻¹ s⁻¹.
For B11 the same measures were 86.5 nM, 0.0052 s⁻¹ and 61000 M⁻¹ s⁻¹.

The target of another experiment is T4, human PILRA, G78 variant, ectopically …. Briefly: flow cytometry; blocking of NPDC1-hIgG1 binding to 293 cells expressing human PILRA G78.
Turning to B1, the concentration for half-maximal inhibition (IC50) was found to be 0.64 µg/mL.
The molecule B2 registered an IC50 of 0.22 µg/mL. Compared with the last molecule, the IC50 is about 2.9-fold lower.
B3 displayed an IC50 of 0.32 µg/mL. The IC50 values of the last two molecules are within 1.5-fold of each other.
The same measure, in the same setting: to B4 belongs 1.9 µg/mL.
Turning to B7, the IC50 came to 0.27 µg/mL.
Turning to B8, the IC50 was 0.78 µg/mL. Against the preceding molecule, the IC50 is about 2.9-fold higher.
The same measure, in the same setting: to B10 belongs 0.38 µg/mL; to B11, 5.7 µg/mL.

A word on the EC50: it is the concentration that produces a half-maximal response. A high value points to a need for much substance. What is called Kd is the constant that tells how readily two partners part at equilibrium. Read a high Kd as a looser complex. One may read the koff as a measure of how fast the partners let go of each other. The low end stands for a long-lived complex, the high end for a short-lived complex. For orientation: kon means the second-order rate constant of association. The term t½ denotes the time in which the quantity being followed falls by half. A higher t½ goes with slow decline. A word on the IC50: it is the concentration at which inhibition is half-maximal.
